Target: Campylobacter jejuni resistance enhancing CmeB (RE-CmeB) multidrug efflux pump (C. jejuni)
Assay: cryo-EM structure; single-particle cryo-EM of 20 uM RE-CmeB in lipidic nanodiscs (MSP 1E3D1, E. coli total extract lipid; 20 mM Tris-HCl pH 7.5, 100 mM NaCl); apo, with fortuitous hydrolyzed ampicillin, or incubated with 1 mM Cip, Ery or Chl for 2 h on ice

Campylobacter jejuni resistance enhancing CmeB (RE-CmeB) multidrug efflux pump (natural protein)
stoichiometry N: 3
